# T1: ARHGAP21, Q5T5U3
# T1 sequence (Q5T5U3 45-169, limits assumed, looked up): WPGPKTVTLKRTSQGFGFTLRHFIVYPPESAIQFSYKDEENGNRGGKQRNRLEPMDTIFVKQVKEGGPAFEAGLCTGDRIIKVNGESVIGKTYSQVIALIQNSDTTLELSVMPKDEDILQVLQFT
# T2: ARHGEF11, O15085
# T2 sequence (O15085 42-136, limits assumed, looked up): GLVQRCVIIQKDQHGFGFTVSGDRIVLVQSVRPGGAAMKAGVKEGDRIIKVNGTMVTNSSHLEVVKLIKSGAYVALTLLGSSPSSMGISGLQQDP
# T3: DLG3_2, Q92796
# T3 sequence (Q92796 221-321, limits assumed, looked up): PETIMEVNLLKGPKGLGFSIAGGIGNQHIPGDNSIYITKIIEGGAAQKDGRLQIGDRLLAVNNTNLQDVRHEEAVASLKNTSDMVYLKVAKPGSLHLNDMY
# T4: LNX2_2, Q8N448
# T4 sequence (Q8N448 334-432, limits assumed, looked up): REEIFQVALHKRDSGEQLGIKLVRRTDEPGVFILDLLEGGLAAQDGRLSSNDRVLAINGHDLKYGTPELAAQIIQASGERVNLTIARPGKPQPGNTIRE
# T5: MPP6, Q9NZW5
# T5 sequence (Q9NZW5 125-219, limits assumed, looked up): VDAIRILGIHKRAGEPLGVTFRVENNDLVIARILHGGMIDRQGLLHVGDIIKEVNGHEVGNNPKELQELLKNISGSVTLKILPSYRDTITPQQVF
# T6: NHERF3_3, Q5T2W1
# T6 sequence (Q5T2W1 238-333, limits assumed, looked up): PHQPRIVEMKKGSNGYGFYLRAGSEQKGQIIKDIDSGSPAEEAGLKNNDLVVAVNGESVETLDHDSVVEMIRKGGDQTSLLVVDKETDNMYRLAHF
# T7: PCLO, Q9Y6V0
# T7 sequence (Q9Y6V0 4491-4600, limits assumed, looked up): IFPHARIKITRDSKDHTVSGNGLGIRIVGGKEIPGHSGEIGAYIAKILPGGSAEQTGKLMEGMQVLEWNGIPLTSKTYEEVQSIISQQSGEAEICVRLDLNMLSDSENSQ
# T8: PDZRN3_1, Q9UPQ7
# T8 sequence (Q9UPQ7 244-349, limits assumed, looked up): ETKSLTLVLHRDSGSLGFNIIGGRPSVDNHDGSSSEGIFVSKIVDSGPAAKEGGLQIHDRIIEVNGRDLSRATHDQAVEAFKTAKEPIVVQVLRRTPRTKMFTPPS
# T9: RHPN1, Q8TCX5
# T9 sequence (Q8TCX5 508-602, limits assumed, looked up): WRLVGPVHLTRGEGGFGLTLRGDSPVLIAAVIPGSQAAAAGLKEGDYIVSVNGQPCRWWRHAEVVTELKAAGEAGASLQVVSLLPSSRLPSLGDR
# T10: SHANK1, Q9Y566
# T10 sequence (Q9Y566 658-767, limits assumed, looked up): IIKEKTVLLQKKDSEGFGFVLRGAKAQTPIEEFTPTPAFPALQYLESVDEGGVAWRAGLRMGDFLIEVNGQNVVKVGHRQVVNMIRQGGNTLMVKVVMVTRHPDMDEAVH
# T11: SIPA1L2, Q9P2F8
# T11 sequence (Q9P2F8 945-1036, limits assumed, looked up): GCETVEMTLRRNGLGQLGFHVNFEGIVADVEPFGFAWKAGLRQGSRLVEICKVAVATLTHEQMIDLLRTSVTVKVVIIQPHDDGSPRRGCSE
# Experiments:
# Assay in all cases: holdup assay
# Set-up in all cases: key: below the threshold = too weak to quantify, mostly under pKd 3.1 to 4
# [1] = target: T1, ARHGAP21, Q5T5U3
# [2] = target: T2, ARHGEF11, O15085
# [3] = target: T3, DLG3_2, Q92796
# [4] = target: DLG5_1, Q8TDM6
# Chain of DLG5_1, Q8TDM6 (Q8TDM6 617-713): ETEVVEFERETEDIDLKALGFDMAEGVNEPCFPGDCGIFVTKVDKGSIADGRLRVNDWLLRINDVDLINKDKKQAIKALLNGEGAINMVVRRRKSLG
# [5] = target: GORASP1, Q9BQQ3
# Chain of GORASP1, Q9BQQ3 (Q9BQQ3 1-208): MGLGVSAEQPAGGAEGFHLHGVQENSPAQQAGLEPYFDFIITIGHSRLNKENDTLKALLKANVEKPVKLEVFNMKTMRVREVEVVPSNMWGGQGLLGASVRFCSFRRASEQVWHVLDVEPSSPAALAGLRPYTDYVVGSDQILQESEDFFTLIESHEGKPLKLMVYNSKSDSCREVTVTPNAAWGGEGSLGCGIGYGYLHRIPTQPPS
# [6] = target: GRIP2_5, Q9C0E4
# Chain of GRIP2_5, Q9C0E4 (Q9C0E4 544-642): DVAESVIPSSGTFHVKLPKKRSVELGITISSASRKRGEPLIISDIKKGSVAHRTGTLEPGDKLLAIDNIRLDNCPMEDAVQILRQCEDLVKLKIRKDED
# [7] = target: IL16_1, Q14005
# Chain of IL16_1, Q14005 (Q14005 210-306): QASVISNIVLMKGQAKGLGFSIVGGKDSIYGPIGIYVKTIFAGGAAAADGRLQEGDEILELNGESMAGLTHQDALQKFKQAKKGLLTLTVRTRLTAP
# [8] = target: IL16_4, Q14005
# Chain of IL16_4, Q14005 (Q14005 1229-1329): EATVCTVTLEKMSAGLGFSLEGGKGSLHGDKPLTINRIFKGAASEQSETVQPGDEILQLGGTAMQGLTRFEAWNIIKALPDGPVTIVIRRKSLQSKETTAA
# [9] = target: Inadl_2, Q8NI35
# Chain of Inadl_2, Q8NI35 (Q8NI35 238-335): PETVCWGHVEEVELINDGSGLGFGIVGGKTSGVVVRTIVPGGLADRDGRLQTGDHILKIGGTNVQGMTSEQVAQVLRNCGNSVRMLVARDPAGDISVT
# [10] = target: Inadl_8, Q8NI35
# Chain of Inadl_8, Q8NI35 (Q8NI35 1425-1530): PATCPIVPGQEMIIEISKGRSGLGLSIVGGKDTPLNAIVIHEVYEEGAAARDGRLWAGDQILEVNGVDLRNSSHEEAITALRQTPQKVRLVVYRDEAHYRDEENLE
# [11] = target: LDB3, O75112
# Chain of LDB3, O75112 (O75112 1-94): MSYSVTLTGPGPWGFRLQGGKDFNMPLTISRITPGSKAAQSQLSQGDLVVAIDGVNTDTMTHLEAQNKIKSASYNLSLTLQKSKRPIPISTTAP
# [12] = target: T4, LNX2_2, Q8N448
# [13] = target: MAST1, Q9Y2H9
# Chain of MAST1, Q9Y2H9 (Q9Y2H9 962-1065): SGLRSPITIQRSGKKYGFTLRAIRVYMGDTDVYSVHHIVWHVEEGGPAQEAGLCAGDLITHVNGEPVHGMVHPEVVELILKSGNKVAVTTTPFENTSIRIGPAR
# [14] = target: MAST2, Q6P0Q8
# Chain of MAST2, Q6P0Q8 (Q6P0Q8 1099-1202): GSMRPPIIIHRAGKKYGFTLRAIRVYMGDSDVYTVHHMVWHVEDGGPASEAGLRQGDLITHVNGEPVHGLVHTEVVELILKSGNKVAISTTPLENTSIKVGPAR
# [15] = target: T5, MPP6, Q9NZW5
# [16] = target: NHERF2_2, Q15599
# Chain of NHERF2_2, Q15599 (Q15599 142-238): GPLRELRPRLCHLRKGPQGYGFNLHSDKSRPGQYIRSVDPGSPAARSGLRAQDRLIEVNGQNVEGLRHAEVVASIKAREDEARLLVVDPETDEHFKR
# [17] = target: T6, NHERF3_3, Q5T2W1
# [18] = target: NHERF4_4, Q86UT5
# Chain of NHERF4_4, Q86UT5 (Q86UT5 464-550): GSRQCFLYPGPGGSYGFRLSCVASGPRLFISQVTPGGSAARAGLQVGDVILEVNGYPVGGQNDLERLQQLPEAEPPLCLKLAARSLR
# [19] = target: T7, PCLO, Q9Y6V0
# [20] = target: T8, PDZRN3_1, Q9UPQ7
# [21] = target: PICK1, Q9NRD5
# Chain of PICK1, Q9NRD5 (Q9NRD5 17-115): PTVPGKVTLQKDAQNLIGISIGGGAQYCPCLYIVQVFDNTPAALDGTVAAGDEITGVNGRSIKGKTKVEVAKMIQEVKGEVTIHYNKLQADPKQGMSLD
# [22] = target: PTPN3, P26045
# Chain of PTPN3, P26045 (P26045 505-587): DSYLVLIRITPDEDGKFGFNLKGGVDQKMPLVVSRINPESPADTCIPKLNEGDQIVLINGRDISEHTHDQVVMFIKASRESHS
# [23] = target: T9, RHPN1, Q8TCX5
# [24] = target: T10, SHANK1, Q9Y566
# [25] = target: T11, SIPA1L2, Q9P2F8
# [26] = target: SNX27, Q96L92
# [27] = target: TJP1_2, Q07157
# Chain of TJP1_2, Q07157 (Q07157 181-274): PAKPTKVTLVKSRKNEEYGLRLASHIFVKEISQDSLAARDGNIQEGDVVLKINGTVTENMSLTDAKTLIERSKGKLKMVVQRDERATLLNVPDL
# [28] = plain residues with an end cap or a label only (N-terminal biotin on a linker: ttds)
# [29] = plain residues with an end cap or a label only (N-terminal biotin on a linker: ahx)
binder,measurement,setting,value
"IQREDQETAV [DGKZ, Q13574]",pKd,[1]; [28],below the threshold
same,pKd,[2]; [28],4.47
same,pKd,[3]; [28],4.88
same,pKd,[4]; [28],below the threshold
same,pKd,[5]; [28],below the threshold
same,pKd,[6]; [28],below the threshold
same,pKd,[7]; [28],4.38
same,pKd,[8]; [28],below the threshold
same,pKd,[9]; [28],below the threshold
same,pKd,[10]; [28],below the threshold
same,pKd,[11]; [28],below the threshold
same,pKd,[12]; [28],below the threshold
same,pKd,[13]; [28],4.57
same,pKd,[14]; [28],5.76
same,pKd,[15]; [28],below the threshold
same,pKd,[16]; [28],4.01
same,pKd,[17]; [28],below the threshold
same,pKd,[18]; [28],below the threshold
same,pKd,[19]; [28],below the threshold
same,pKd,[20]; [28],4.91
same,pKd,[21]; [28],below the threshold
same,pKd,[22]; [28],5.12
same,pKd,[23]; [28],4.35
same,pKd,[24]; [28],4.3
same,pKd,[25]; [28],below the threshold
same,pKd,[26]; [28],6
same,pKd,[27]; [28],below the threshold
"SPLHSLETSL [ATP2B1, P20020]",pKd,[1]; [28],3.58
same,pKd,[2]; [28],4.27
same,pKd,[3]; [28],4.35
same,pKd,[4]; [28],below the threshold
same,pKd,[5]; [28],3.61
same,pKd,[6]; [28],below the threshold
same,pKd,[7]; [28],below the threshold
same,pKd,[8]; [28],below the threshold
same,pKd,[9]; [28],below the threshold
same,pKd,[10]; [28],below the threshold
same,pKd,[11]; [28],below the threshold
same,pKd,[12]; [28],below the threshold
same,pKd,[13]; [28],4.92
same,pKd,[14]; [28],5.88
same,pKd,[15]; [28],below the threshold
same,pKd,[16]; [28],4.87
same,pKd,[17]; [28],below the threshold
same,pKd,[18]; [28],below the threshold
same,pKd,[19]; [28],below the threshold
same,pKd,[20]; [28],5.09
same,pKd,[21]; [28],below the threshold
same,pKd,[22]; [28],4.95
same,pKd,[23]; [28],4.75
same,pKd,[24]; [28],4.71
same,pKd,[25]; [28],below the threshold
same,pKd,[26]; [28],5.48
same,pKd,[27]; [28],below the threshold
"MERLRVETDV [ARHGEF16, Q5VV41]",pKd,[1]; [28],3.63
same,pKd,[2]; [28],4.21
same,pKd,[3]; [28],5.61
same,pKd,[4]; [28],below the threshold
same,pKd,[5]; [28],below the threshold
same,pKd,[6]; [28],below the threshold
same,pKd,[7]; [28],below the threshold
same,pKd,[8]; [28],below the threshold
same,pKd,[9]; [28],below the threshold
same,pKd,[10]; [28],3.53
same,pKd,[11]; [28],below the threshold
same,pKd,[12]; [28],3.93
same,pKd,[13]; [28],4.39
same,pKd,[14]; [28],5.56
same,pKd,[15]; [28],below the threshold
same,pKd,[16]; [28],below the threshold
same,pKd,[17]; [28],below the threshold
same,pKd,[18]; [28],below the threshold
same,pKd,[19]; [28],below the threshold
same,pKd,[20]; [28],3.53
same,pKd,[21]; [28],below the threshold
same,pKd,[22]; [28],4.38
same,pKd,[23]; [28],4.18
same,pKd,[24]; [28],below the threshold
same,pKd,[25]; [28],below the threshold
same,pKd,[26]; [28],4.17
same,pKd,[27]; [28],below the threshold
"KTSAHHATFV [RGS12, O14924]",pKd,[1]; [29],below the threshold
same,pKd,[2]; [29],3.6
same,pKd,[3]; [29],3.92
same,pKd,[4]; [29],below the threshold
same,pKd,[5]; [29],3.86
same,pKd,[6]; [29],below the threshold
same,pKd,[7]; [29],below the threshold
same,pKd,[8]; [29],below the threshold
same,pKd,[9]; [29],below the threshold
same,pKd,[10]; [29],4.22
same,pKd,[11]; [29],below the threshold
same,pKd,[12]; [29],4.62
same,pKd,[13]; [29],3.65
same,pKd,[14]; [29],4.33
same,pKd,[15]; [29],below the threshold
same,pKd,[16]; [29],below the threshold
same,pKd,[17]; [29],below the threshold
same,pKd,[18]; [29],below the threshold
same,pKd,[19]; [29],below the threshold
same,pKd,[20]; [29],below the threshold
same,pKd,[21]; [29],below the threshold
same,pKd,[22]; [29],3.92
same,pKd,[23]; [29],4.03
same,pKd,[24]; [29],below the threshold
same,pKd,[25]; [29],below the threshold
same,pKd,[26]; [29],4.05
same,pKd,[27]; [29],below the threshold
